Numbered stars: 1 amine (or outer) side, 2 acyl side, 3 side chain; on linkers, the order of the positions; unused ones are H or OH. Square brackets hold non-standard residues; d marks the D form. Phe(3R-OH) = O=C([C@@H](N[*:1])[C@H](O[*:3])c1ccccc1)[*:2]; Phe(3-Me) = Cc1cccc(C[C@H](N)C(=O)O)c1; Phe(4-Me) = Cc1ccc(C[C@H](N)C(=O)O)cc1; Phe(2-Me) = Cc1ccccc1C[C@H](N)C(=O)O; Arg(Me) = CNC(=N)NCCC[C@H](N)C(=O)O; Hyp = O=C(O)[C@@H]1C[C@@H](O)CN1; αMeF = C[C@](N)(Cc1ccccc1)C(=O)O; Dab = NCC[C@H](N)C(=O)O; Dap = NC[C@H](N)C(=O)O; azaGly = NNC(=O)O
B1: des(1)-Ac-[D-Tyr2,Hyp3,Thr5,threo-Ser(3Phenyl)6,AzaGly7,Arg(Me)9,Trp10]MS10 (peptide)
peptide: Ac-[dY][Hyp]NT[Phe(3R-OH)][azaGly]L[Arg(Me)]W-NH2
SMILES: CNC(=N)NCCC[C@H](NC(=O)[C@H](CC(C)C)NC(=O)NNC(=O)[C@@H](NC(=O)[C@@H](NC(=O)[C@H](CC(N)=O)NC(=O)[C@@H]1C[C@@H](O)CN1C(=O)[C@@H](Cc1ccc(O)cc1)NC(C)=O)[C@@H](C)O)[C@H](O)c1ccccc1)C(=O)N[C@@H](Cc1c[nH]c2ccccc12)C(N)=O
B2: des(1)-Ac-[D-Tyr2,Hyp3,Thr5,Phe(2Me)6,AzaGly7,Arg(Me)9,Trp10]MS10 (peptide)
peptide: Ac-[dY][Hyp]NT[Phe(2-Me)][azaGly]L[Arg(Me)]W-NH2
SMILES: CNC(=N)NCCC[C@H](NC(=O)[C@H](CC(C)C)NC(=O)NNC(=O)[C@H](Cc1ccccc1C)NC(=O)[C@@H](NC(=O)[C@H](CC(N)=O)NC(=O)[C@@H]1C[C@@H](O)CN1C(=O)[C@@H](Cc1ccc(O)cc1)NC(C)=O)[C@@H](C)O)C(=O)N[C@@H](Cc1c[nH]c2ccccc12)C(N)=O
B3: des(1)-Ac-[D-Tyr2,Hyp3,Dap4,Thr5,AzaGly7,Arg(Me)9,Trp10]MS10 (peptide)
peptide: Ac-[dY][Hyp][Dap]TF[azaGly]L[Arg(Me)]W-NH2
SMILES: CNC(=N)NCCC[C@H](NC(=O)[C@H](CC(C)C)NC(=O)NNC(=O)[C@H](Cc1ccccc1)NC(=O)[C@@H](NC(=O)[C@H](CN)NC(=O)[C@@H]1C[C@@H](O)CN1C(=O)[C@@H](Cc1ccc(O)cc1)NC(C)=O)[C@@H](C)O)C(=O)N[C@@H](Cc1c[nH]c2ccccc12)C(N)=O
B4: des(1)-Ac-[D-Tyr2,Hyp3,Dab4,Thr5,AzaGly7,Arg(Me)9,Trp10]MS10 (peptide)
peptide: Ac-[dY][Hyp][Dab]TF[azaGly]L[Arg(Me)]W-NH2
SMILES: CNC(=N)NCCC[C@H](NC(=O)[C@H](CC(C)C)NC(=O)NNC(=O)[C@H](Cc1ccccc1)NC(=O)[C@@H](NC(=O)[C@H](CCN)NC(=O)[C@@H]1C[C@@H](O)CN1C(=O)[C@@H](Cc1ccc(O)cc1)NC(C)=O)[C@@H](C)O)C(=O)N[C@@H](Cc1c[nH]c2ccccc12)C(N)=O
B5: des(1)-Ac-[D-Tyr2,Hyp3,Thr5,Phe(4Me)6,AzaGly7,Arg(Me)9,Trp10]MS10 (peptide)
peptide: Ac-[dY][Hyp]NT[Phe(4-Me)][azaGly]L[Arg(Me)]W-NH2
SMILES: CNC(=N)NCCC[C@H](NC(=O)[C@H](CC(C)C)NC(=O)NNC(=O)[C@H](Cc1ccc(C)cc1)NC(=O)[C@@H](NC(=O)[C@H](CC(N)=O)NC(=O)[C@@H]1C[C@@H](O)CN1C(=O)[C@@H](Cc1ccc(O)cc1)NC(C)=O)[C@@H](C)O)C(=O)N[C@@H](Cc1c[nH]c2ccccc12)C(N)=O
B6: des(1)-Ac-[D-Tyr2,Hyp3,Thr5,Phe(3Me)6,AzaGly7,Arg(Me)9,Trp10]MS10 (peptide)
peptide: Ac-[dY][Hyp]NT[Phe(3-Me)][azaGly]L[Arg(Me)]W-NH2
SMILES: CNC(=N)NCCC[C@H](NC(=O)[C@H](CC(C)C)NC(=O)NNC(=O)[C@H](Cc1cccc(C)c1)NC(=O)[C@@H](NC(=O)[C@H](CC(N)=O)NC(=O)[C@@H]1C[C@@H](O)CN1C(=O)[C@@H](Cc1ccc(O)cc1)NC(C)=O)[C@@H](C)O)C(=O)N[C@@H](Cc1c[nH]c2ccccc12)C(N)=O
B7: des(1)-Ac-[D-Tyr2,Hyp3,Thr5,αMePhe6,AzaGly7,Arg(Me)9,Trp10]MS10 (peptide)
peptide: Ac-[dY][Hyp]NT[αMeF][azaGly]L[Arg(Me)]W-NH2
SMILES: CNC(=N)NCCC[C@H](NC(=O)[C@H](CC(C)C)NC(=O)NNC(=O)[C@](C)(Cc1ccccc1)NC(=O)[C@@H](NC(=O)[C@H](CC(N)=O)NC(=O)[C@@H]1C[C@@H](O)CN1C(=O)[C@@H](Cc1ccc(O)cc1)NC(C)=O)[C@@H](C)O)C(=O)N[C@@H](Cc1c[nH]c2ccccc12)C(N)=O

Each binder was assayed against human OT7T175 (metastin receptor) (human) (UniProt Q969F8) (assay: cell-based or functional assay).
Sequence of human OT7T175 (metastin receptor) (human) (Q969F8 whole entry L364H): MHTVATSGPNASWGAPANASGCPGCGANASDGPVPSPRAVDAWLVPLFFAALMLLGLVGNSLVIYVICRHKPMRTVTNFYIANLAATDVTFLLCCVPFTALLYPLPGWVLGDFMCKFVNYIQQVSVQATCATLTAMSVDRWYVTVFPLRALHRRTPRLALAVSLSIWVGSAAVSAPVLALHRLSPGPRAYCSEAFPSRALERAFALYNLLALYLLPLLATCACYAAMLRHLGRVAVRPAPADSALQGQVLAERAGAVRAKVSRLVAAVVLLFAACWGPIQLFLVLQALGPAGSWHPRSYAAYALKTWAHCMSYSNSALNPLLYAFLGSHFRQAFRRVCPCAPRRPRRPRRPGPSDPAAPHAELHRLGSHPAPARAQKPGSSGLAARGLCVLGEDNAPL

Row | Binder | intracellular Ca ion level-increasing activity [specific activity to Metastin (1-54)] (relative to Metastin (1-54))
1 | B1 | 1
2 | B2 | 0.6
3 | B3 | 0.9
4 | B4 | 1
5 | B5 | 0.8
6 | B6 | 0.7
7 | B7 | 1.4

From US20090105152A1
